Results reported in article PMC12312913.

How the values were obtained:
Test in all cases: BLI; Octet R2; His6-tagged OMP-TF bound to rabbit anti-His mAb and tethered to ProA biosensors; analyte: crude cell lysate of J-Flag at different concentrations; PBS with 0.1% BSA and 0.01% Tween-20; double reference subtraction (buffer and TF sensor); 1:1 binding model
[1] = molecular target: OmpX fused to TF and His tag (S. Typhimurium)
[2] = molecular target: OmpC fused to TF and His tag (S. Typhimurium) (UniProt P0A263)
Chain of OmpC fused to TF and His tag (S. Typhimurium) (P0A263 22-378): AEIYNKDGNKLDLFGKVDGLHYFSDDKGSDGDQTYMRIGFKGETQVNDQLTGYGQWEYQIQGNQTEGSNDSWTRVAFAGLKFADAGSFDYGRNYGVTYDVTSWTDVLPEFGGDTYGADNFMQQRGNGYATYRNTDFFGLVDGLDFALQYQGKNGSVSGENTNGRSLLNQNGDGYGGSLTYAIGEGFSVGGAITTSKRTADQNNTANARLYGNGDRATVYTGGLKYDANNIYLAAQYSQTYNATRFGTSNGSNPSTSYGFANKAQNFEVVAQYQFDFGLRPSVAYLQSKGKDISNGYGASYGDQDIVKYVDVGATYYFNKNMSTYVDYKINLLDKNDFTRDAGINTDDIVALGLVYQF

[3] = molecular target: BtuB fused to TF and His tag (S. Typhimurium) (UniProt P37409)
Chain of BtuB fused to TF and His tag (S. Typhimurium) (P37409 21-614): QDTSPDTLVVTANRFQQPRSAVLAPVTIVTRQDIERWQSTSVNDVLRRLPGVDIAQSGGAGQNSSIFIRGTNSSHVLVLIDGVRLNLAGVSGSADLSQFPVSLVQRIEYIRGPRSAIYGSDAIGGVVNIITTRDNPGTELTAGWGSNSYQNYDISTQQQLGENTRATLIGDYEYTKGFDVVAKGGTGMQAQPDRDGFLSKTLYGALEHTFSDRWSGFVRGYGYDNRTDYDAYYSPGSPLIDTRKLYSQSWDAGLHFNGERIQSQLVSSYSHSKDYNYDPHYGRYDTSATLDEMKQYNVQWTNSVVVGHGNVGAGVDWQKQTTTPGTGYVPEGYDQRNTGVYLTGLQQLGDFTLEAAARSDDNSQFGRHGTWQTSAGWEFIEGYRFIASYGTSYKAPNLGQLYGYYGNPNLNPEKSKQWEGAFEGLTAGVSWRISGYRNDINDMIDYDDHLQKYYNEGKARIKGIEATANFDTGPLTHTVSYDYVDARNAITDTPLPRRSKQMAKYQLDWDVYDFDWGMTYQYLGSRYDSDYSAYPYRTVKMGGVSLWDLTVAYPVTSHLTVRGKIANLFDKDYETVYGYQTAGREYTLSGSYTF

In the case of “Gifsy-1 central tail tip J protein with Flag tag (natural protein)”, the Kd [1] is reported as 70 nM, the Kd [2] is reported as 0.341 nM and the Kd [3] is reported as 0.00597 nM.
